Test results taken from US10500256B2, “Polymers for delivery of therapeutic proteins” (BOARD OF REGENTS, THE UNIVERSITY OF TEXAS SYSTEM, priority 2014, dated 2019).

Columns and labels:
Caco-2 monolayer [1] = details: cited from earlier work
Caco-2 monolayer [2] = assay: Transport across Caco-2 monolayer (literature data); assay type: in vitro ADME, human; details: over the 3 h average residence time, assuming constant permeability
Description: Aside from limited delivery potential from the microparticle carriers, loss of bioavailability resulting from intestinal enzymatic degradation and low intestinal absorption should also be accounted for.

[3] = in vivo absorption of compounds with similar Caco-2 permeability; cited from earlier work
[4] = Loading and release of salmon calcitonin, urokinase and Rituxan from 1:2 P(IA-co-NVP) microparticles; assay type: physicochemical; details: 3 mol % TEGDMA; for Loading Level: protein loading solution 200 μg/mL; for Percent Release, t = 24 h / Protein Released, t = 24 h: t=0-1 h pH 3, then pH 7.4
Description: In an additional experiment, the loading and release of urokinase was also compared to that of sCT and rituximab using P(IA-co-NVP) microparticles synthesized with a monomer ratio of 1:2 IA to NVP. This experiment utilized urokinase as another high pI protein (pI=8.66) with a molecular weight (54.0 kDa) between that of salmon calcitonin (3.4 kDa) and rituximab (144 kDa), allowing us to see the effects across a range of sizes, rather than just two endpoints. Urokinase is used clinically as a thrombolytic agent for myocardial infarction, pulmonary embolism, and deep vein thrombosis.
This difference arises from two results. First, the hydrogels used in this experiment were crosslinked using 3 mol % TEGDMA in the monomer feed. […] Further, this experiment utilized loading solutions of proteins at only 200 μg/mL, rather than at 400 μg/mL as was used in the preceding experiment. […] With lower loading levels comes both lower overall delivery and lower percent release, as the lower loading level means less protein to be released even at 100% efficiency and, since concentration difference is the driving force for diffusion, less entropic gain due to diffusive release which therefore shifts the equilibrium toward coulombic binding rather than diffusive release.

Molecule | Loading Level [4] [μg/mg hydrogel] | Percent Release, t = 24 h [4] [%] | Protein Released, t = 24 h [4] [μg/mg hydrogel] | also measured
1-deamino-8-D-arginine-vasopressin | – | – | – | Apparent permeability in Caco-2 cultures (Caco-2 monolayer [1]; Caco-2): 1.3×10^−7
CC(C)C[C@H](NC(=O)[C@H](CCCCN)NC(=O)CNC(=O)[C@H](CC(C)C)NC(=O)[C@@H](NC(=O)[C@@H]1CSSC[C@H](N)C(=O)N[C@@H](CO)C(=O)N[C@@H](CC(N)=O)C(=O)N[C@@H](CC(C)C)C(=O)N[C@@H](CO)C(=O)N[C@@H]([C@@H](C)O)C(=O)N1)C(C)C)C(=O)N[C@@H](CO)C(=O)N[C@@H](CCC(N)=O)C(=O)N[C@@H](CCC(=O)O)C(=O)N[C@@H](CC(C)C)C(=O)N[C@@H](Cc1c[nH]cn1)C(=O)N[C@@H](CCCCN)C(=O)N[C@@H](CC(C)C)C(=O)N[C@@H](CCC(N)=O)C(=O)N[C@H](C(=O)N[C@@H](Cc1ccc(O)cc1)C(=O)N1CCC[C@H]1C(=O)N[C@@H](CCCNC(=N)N)C(=O)N[C@H](C(=O)N[C@@H](CC(N)=O)C(=O)N[C@H](C(=O)NCC(=O)N[C@@H](CO)C(=O)NCC(=O)N[C@H](C(=O)N1CCC[C@H]1C(N)=O)[C@@H](C)O)[C@@H](C)O)[C@@H](C)O)[C@@H](C)O [Salmon Calcitonin] | – | – | – | Fraction transported across a Caco-2 monolayer (Caco-2 monolayer [1]; in vitro, over 60 min, Youn et al. (2006)): 0.05%; Fraction expected to be transported across the intestinal epithelium (Caco-2 monolayer [2]): 0.15%
COc1cccc2c1C(=O)c1c(O)c3c(c(O)c1C2=O)C[C@@](O)(C(=O)CO)C[C@@H]3O[C@H]1C[C@H](N)[C@H](O)[C@H](C)O1 [doxorubicin] | – | – | – | Absorption [3]: 5%
Rituxan: large monoclonal antibody rituximab (144 kDa) | 24.1 ± 1.5 | 20.0 ± 3.6 | 4.8 ± 1.1 | Loading Level ([4]; listed as rituximab): 24.1 μg/mg hydrogel
Urokinase | 19.0 ± 1.1 | 14.2 ± 3.2 | 2.7 ± 0.5 | Loading Level ([4]; listed as urokinase): 19.0 μg/mg hydrogel
